Experimental data from paper PMC11602552 (The Journal of Experimental Medicine, 2024).

Target: wild type eIF6 (eIF6^WT), purified (UniProt O55135 1-245)
Test: SPR

B1: Nsun2, purified (enzyme)
chain: MGRRARGRRFQQPPQPEGEEDASDGGRKRGQAGWEGGYPEIVKENKLFEHYYQELKIVPEGEWDQFMESLREPLPATLRITGYKSHAKEILHCLKNKYFKELEDLEVDGQKVEVPQPLSWYPEELAWHTNLSRKILRKSPLLAKFHQFLVSETESGNISRQEAVSMIPPLLLNVEPHHKILDMCAAPGSKTTQLIEMLHADMSVPFPEGFVIANDVDNKRCYLLVHQAKRLSSPCIMVVNHDASSIPRLTVDVDGRKEILFYDRILCDVPCSGDGTMRKNIDVWKKWTTLNSLQLHGLQLRIATRGAEQLAEGGRMVYSTCSLNPVEDEAVIAALLEKSEGALELADVSAELPGLKWMPGVSQWKVMTRDGQWFADWHEVPQGRHTQIRPTMFPPTDLEKLQAMHLERCLRILPHHQNTGGFFVAVLVKKAPMPWNKRQPKVQNKSAEAREPRVSSHVAATEGNPSDQSELESQMITGAGDSETAHNTENTESNEKKDGVCGPPPSKKMKLFGFKEDPFVFIPEDDPLFPPIEKFYALDPSFPRMNLLTRTTEGKKRQLYMVSKELRNVLLNNSEKMKVINTGIKVWCRNNSGEEFDCAFRLAQEGIYTLYPFINSRIITVSMEDVKTLLTQENPFFRKLSSEAYSQVKDLAKGSVVLKYEPDSANPDTLQCPIVLCGWRGKASIRTFVPKNERLHYLRMMGLEVLGEKKKEGVILTNENAASPEQPGDEDAKQTAQDPCVPDSVPGCDAAAAEPSR
- Kd: 1470 nM
